Assay results: patent publication US8236753 (BRIGHAM AND WOMEN S HOSPITAL, dated 2012)

B1: wild-type RAP-D3 (third domain of the receptor-associated protein, residues 216-323) (ligand, human)
chain: GAEFEEPRVIDLWDLAQSANLTDKELEAFREELKHFEAKIEKHNHYQKQLEIAHEKLRHAESVGDGERVSRSREKHALLEGRTKELGYTVKKHLQDLSGRISRARHNEL
notes: range 216-323; Expressed in E. coli as a GST fusion, released by TEV protease, monomer isolated by size exclusion; The range 216-323 counts on the mature RAP protein, not on the precursor; also called RAP-D3 WT; RAPD3_WT
B2: LA3-4 module pair of the LDLR (LDL receptor type-A repeats 3 and 4) (receptor)
chain: not shown
notes: domain: LA3-4 module pair; also called two-repeat fragment of the LDL receptor; LA3-4 repeat pair

What was measured:
[1] = target: B2; experiment: ITC, RAP-D3 titrated into LA3-4, 20 mM HEPES pH 7.3, 5 mM CaCl2, 25 C, 50 mM NaCl; parameters: ΔH: unit not given here
Protocol: (§1) RAP-D3 titrations were performed in 20 mM HEPES, pH 7.3, 50-150 mM NaCl, 5 mM CaCl_2 at 25° C. using a VP-ITC calorimeter (MicroCal Inc., Northampton, Mass.) in a 1.3 mL reaction vessel. A RAP-D3 stock solution (132-178 μM) was added in 6-8 μL increments to LA3-4 (20-25 μM). Calorim-

[2] = target: B2; experiment: ITC, RAP-D3 titrated into LA3-4, 20 mM HEPES pH 7.3, 5 mM CaCl2, 25 C, 150 mM NaCl; parameters: ΔH: unit not given here
Protocol: as §1

[3] = target: B1; experiment: ITC, RAP-D3 titrated into LA3-4, 20 mM HEPES pH 7.3, 5 mM CaCl2, 25 C, 50 mM NaCl; parameters: ΔH: unit not given here
Protocol: as §1

[4] = target: B1; experiment: ITC, RAP-D3 titrated into LA3-4, 20 mM HEPES pH 7.3, 5 mM CaCl2, 25 C, 150 mM NaCl; parameters: ΔH: unit not given here
Protocol: as §1

[5] = target: B2; experiment: ITC at neutral pH
Protocol: as §1

[6] = target: B2; experiment: ITC, RAP-D3 titrated into LA3-4, 20 mM HEPES pH 7.3, 5 mM CaCl2, 25 C, 100 mM NaCl; parameters: ΔH: unit not given here
Protocol: as §1

[7] = target: B2; experiment: ITC, RAP-D3 titrated into LA3-4, 20 mM HEPES pH 7.3, 5 mM CaCl2, 25 C, 100 mM NaCl; 100 mM NaCl
Protocol: as §1

| Binder | ΔH [1] | fold difference in affinity against wild-type RAP-D3 [5] [fold] | Kd [1] [nM] | also measured |
| --- | --- | --- | --- | --- |
| B1 | -9.1 |  |  | ΔH [2]: -6.8 |
| B2 |  |  |  | Kd [3]: 480 nM; Kd [4]: 1170 nM |
| RAP-D3-quad (RAP-D3 H257F/H259F/H268F/H290F) (ligand, also called RAP-D3 Quad H:F; RAPD3_H257, 259, 268, 290F) GAEFEEPRVIDLWDLAQSANLTDKELEAFREELKHFEAKIEKFNFYQKQLEIAFEKLRHAESVGDGERVSRSREKFALLEGRTKELGYTVKKHLQDLSGRISRARHNEL |  | ≤ 2 |  | Kd [6]: 850 nM; ΔH [6]: -5.4; Ka [7]: 1.2e+06 M⁻¹ |
| RAP-D3 [H257F/H259F] (ligand, The entry is printed as ENLYFQG followed by the 108 residues; also called RAPD3_H257, 259F; RAP-D3 H257,259F) GAEFEEPRVIDLWDLAQSANLTDKELEAFREELKHFEAKIEKFNFYQKQLEIAHEKLRHAESVGDGERVSRSREKHALLEGRTKELGYTVKKHLQDLSGRISRARHNEL | -8.6 | ≤ 2 | 850 |  |
| RAP-D3 [H268F/H290F] (ligand, also called RAPD3_H268, 290F) GAEFEEPRVIDLWDLAQSANLTDKELEAFREELKHFEAKIEKHNHYQKQLEIAFEKLRHAESVGDGERVSRSREKFALLEGRTKELGYTVKKHLQDLSGRISRARHNEL | -9.3 | ≤ 2 | 1160 |  |
